Laboratory results from paper PMC10559304 (Molecular Biology of the Cell, 2023).
Where two headings read alike, the source gives them in different places.

How the values were obtained:
[1] = molecular target: GMPCPP-polymerized, Taxol-stabilized microtubules of the crosslinking and sliding assay (surface-immobilized HiLyte 647/biotin MTs and free rhodamine MTs); assay: MT crosslinking and sliding assay by three-colour TIRF microscopy
[2] = molecular target: Taxol-stabilized microtubules of unlabeled, Alexa 647-labeled and biotinylated tubulin (50:2:1.5) (not stated (Pork or Bovine brains)); assay: single-molecule TIRF microscopy motility assay
[3] = molecular target: D. melanogaster KLP61F extended bipolar assembly domain (BASS-XL) minifilament (D. melanogaster) (UniProt P46863); assay: crystal structure
mass photometry = molecular target: the molecule itself; assay: mass photometry
[4] = molecular target: microtubules of biotin- and Alexa-Fluor-633-labeled porcine tubulin, polymerized with GMPCPP or Paclitaxel (porcine); assay: single-molecule TIRF microscopy motility assay
[5] = molecular target: microtubules of biotin- and Alexa-Fluor-633-labeled porcine tubulin, polymerized with GMPCPP or Paclitaxel (porcine); assay: single-molecule TIRF microscopy motility assay; remark: listed apart in the source
[6] = molecular target: the molecule itself; assay: single-molecule TIRF microscopy, Neon Green spot intensities
[7] = molecular target: microtubules of biotin- and Alexa-Fluor-633-labeled porcine tubulin, polymerized with GMPCPP or Paclitaxel (porcine); assay: single-molecule TIRF microscopy motility assay; remark: listed apart in the source
[8] = molecular target: microtubules of biotin- and Alexa-Fluor-633-labeled porcine tubulin, polymerized with GMPCPP or Paclitaxel (porcine); assay: single-molecule TIRF microscopy motility assay; remark: listed apart in the source
[9] = molecular target: microtubules of biotin- and Alexa-Fluor-633-labeled porcine tubulin, polymerized with GMPCPP or Paclitaxel (porcine); assay: single-molecule TIRF microscopy motility assay; remark: listed apart in the source

Molecule	percent of surface-immobilized MTs crosslinked to free MTs [1]	MT plus-end dwell time [4]	MT plus-end dwell time [5]	stoichiometry N (mass photometry)	other results
human Eg5 kinesin-5 minitetramer without tail, labeled with Tetra-methyl Rhodamine (from UniProt P52732;P46863)					lifetime at MT plus-ends, long population (Weibull a2) [2]: 140 s; lifetime at MT plus-ends, short population (Weibull a1) [2]: 14.6 s
D. melanogaster KLP61F extended bipolar assembly domain (BASS-XL) minifilament (from UniProt P46863 597-833) (domain or fragment)					stoichiometry N [3]: 4
D. melanogaster KLP61F kinesin-5 minitetramer with tail, fused to Neon Green (other) MDISGGNTSRQPQKKSNQNIQVYVRVRPLNSRERCIRSAEVVDVVGPREVVTRHTLDSKLTKKFTFDRSFGPESKQCDVYSVVVSPLIEEVLNGYNCTVFAYGQTGTGKTHTMVGNETAELKSSWEDDSDIGIIPRALSHLFDELRMMEVEYTMRISYLELYNEELCDLLSTDDTTKIRIFDDSTKKGSVIIQGLEEIPVHSKDDVYKLLEKGKERRKTATTLMNAQSSRSHTVFSIVVHIRENGIEGEDMLKIGKLNLVDLAGSENVSKAGNEKGIRVRETVNINQSLLTLGRVITALVDRAPHVPYRESKLTRLLQESLGGRTKTSIIATISPGHKDIEETLSTLEYAHRAKNIQNKPEVNQKLTKKAQSLQDQTNLHNKLIGEVMKISDQHSQAFVAKLMEQMQQQQLLMSKEIQTNLQVIEENNQRHKAMLDSMQEKFATIIDSSLQSVEEHAKQMHKKLEQLGAMSLPDAEELQNLQEELANERALAQQEDALLESMMMQMEQIKNLRSKNSISMSVHLNKMEESRLTRNHRIDDIKSGIQDYQKLGIEASQSAQAELTSQMEAGMLCLDQGVANCSMLQVHMKNLNQKYEKETNENVGSVQICEQELVRFQQSELKTYAPTGTTPSKRDFVYPRTLVATSPHQEIVRRYRQELDWSDLDTTATIDECSEGEHDVSMHSVQELSETETIMNSTPIEPVDGVTVKRGCGTTRNSNSNALKPPVATGGKRSSSLSRSLTPSKTSPRGSPAFVRHNKENVA	24%	117 s	267 s	4	stoichiometry N [6]: 5 to 10 motors per cluster; MT plus-end dwell time [7]: 125 s; MT plus-end dwell time [8]: 147 s; MT plus-end dwell time [9]: 25 s

The next lines start with results.

percent of surface-immobilized MTs crosslinked to free MTs [1]	MT plus-end dwell time [4]	MT plus-end dwell time [5]	Molecule	stoichiometry N (mass photometry)	other results
54%			full-length human kinesin-5 (Eg5) without the tail, GFP fusion (domain or fragment)		
2%	78 s	25 s	D. melanogaster KLP61F kinesin-5 minitetramer without tail, fused to Neon Green (other) MDISGGNTSRQPQKKSNQNIQVYVRVRPLNSRERCIRSAEVVDVVGPREVVTRHTLDSKLTKKFTFDRSFGPESKQCDVYSVVVSPLIEEVLNGYNCTVFAYGQTGTGKTHTMVGNETAELKSSWEDDSDIGIIPRALSHLFDELRMMEVEYTMRISYLELYNEELCDLLSTDDTTKIRIFDDSTKKGSVIIQGLEEIPVHSKDDVYKLLEKGKERRKTATTLMNAQSSRSHTVFSIVVHIRENGIEGEDMLKIGKLNLVDLAGSENVSKAGNEKGIRVRETVNINQSLLTLGRVITALVDRAPHVPYRESKLTRLLQESLGGRTKTSIIATISPGHKDIEETLSTLEYAHRAKNIQNKPEVNQKLTKKAQSLQDQTNLHNKLIGEVMKISDQHSQAFVAKLMEQMQQQQLLMSKEIQTNLQVIEENNQRHKAMLDSMQEKFATIIDSSLQSVEEHAKQMHKKLEQLGAMSLPDAEELQNLQEELANERALAQQEDALLESMMMQMEQIKNLRSKNSISMSVHLNKMEESRLTRNHRIDDIKSGIQDYQKLGIEASQSAQAELTSQMEAGMLCLDQGVANCSMLQVHMKNLNQKYEKETNENVGSV	4	
